Laboratory results from IntAct's records for PubMed 10206957.

B1: Signal peptidase complex catalytic subunit SEC11 (Saccharomyces cerevisiae), P15367 (parent)
chain: MNLRFELQKLLNVCFLFASAYMFWQGLAIATNSASPIVVVLSGSMEPAFQRGDILFLWNRNTFNQVGDVVVYEVEGKQIPIVHRVLRQHNNHADKQFLLTKGDNNAGNDISLYANKKIYLNKSKEIVGTVKGYFPQLGYITIWISENKYAKFALLGMLGLSALLGGE
partner: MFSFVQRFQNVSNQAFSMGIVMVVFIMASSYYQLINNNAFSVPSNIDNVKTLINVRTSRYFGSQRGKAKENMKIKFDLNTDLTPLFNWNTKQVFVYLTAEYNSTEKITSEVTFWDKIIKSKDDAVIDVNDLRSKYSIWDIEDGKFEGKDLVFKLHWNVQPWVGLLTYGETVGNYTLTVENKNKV

Variants of: B1
Settings: with spc3_yeast SPC3, Q12133

effect of a mutation on the interaction | Variant
decreasing interaction | D103N
